Test results published in the supplement of paper PMC9170038.

Assays:
[1] = tested on: K4 kissing-loop RNA reporter; assay: apparent KD of K4 kissing-loop reporter; higher = weaker reporter binding; settings: Eterna round: R107;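 also: bound reporter read as fluorescence of individual clusters on recovered sequencing chips by microscopy, with normalized cluster intensities fitted with a binding model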
Experimental: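 RNA-MaP round R107: designed RNA switches with theophylline, tryptophan, arginine or FMN aptamers are transcribed on-chip within common flanks. They are titrated with a labelled K4 kissing-loop RNA reporter in RNA-MaP buffer (100 mM Tris pH 7.5, 80 mM KCl, 4 mM MgCl2), without ligand or with the indicated ligand. Median apparent KD per design.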

MS2 coat protein = assay: apparent KD of MS2 coat protein; designed switch direction (-1 OFF switch, 1 ON switch): -1; higher = weaker reporter binding
Procedure, shortened: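 On Illumina chips, designed RNA switches with common flanks were made by stalled E. coli RNA polymerase. Titrations with SNAP-549-labelled MS2 coat protein, doubling from 0.7 or 1.5 nM to 3 µM, were done with no input, with 200 uM small-molecule ligand, or with an oligonucleotide input. Apparent KD is the median per design over clusters, from curve fits of normalised cluster fluorescence.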

[2] = input ligand: theophylline 20 uM
[3] = input ligand: tryptophan 2.4 mM
[4] = input ligand: microRNA oligo, concentration not stated
[5] = Eterna round: R95, input ligand: FMN 200 uM
[6] = Eterna round: R95, input ligand: microRNA oligo, concentration not stated
[7] = Eterna round: R95, input ligand: none

Row | Sequence | apparent KD of K4 kissing-loop reporter ([1]; input ligand: FMN 200 uM) [nM] | apparent KD of K4 kissing-loop reporter ([1]; input ligand: arginine 13.2 mM) [nM] | apparent KD of K4 kissing-loop reporter ([1]; input ligand: none) [nM] | apparent KD of K4 kissing-loop reporter [1, 2] [nM] | apparent KD of K4 kissing-loop reporter [1, 3] [nM] | other results
1 | UAACUUGCAGUGAUGUUGCAAGAACUGGAUACCAGCAUGGAAACAUGCCCUUGGCAGCCAGAAGCUGGCUGCUUGUAAUGUCAGC [Design6] | 162 | 158 | 170 | 131 | 138 | –
2 | CCCUCACGAGUGAUGUUCGUAGGGUACAGUCAGGAUAUCAUGCGGUUGAGAAGGGACAGAGAGGGCGGCCACUGGUUGCUCUUCU [Tiatesqu] | 150 | 249 | 235 | 418 | 200 | –
3 | CAUACGCAUGGAGGAUAUGAGAUUACUCAUAUUACCCUGUAACAGGUAUCUCAGUGAUGUUGAGACUCAGAAGGCCAUGUGUAUG [Ex FMN B 22] | 713 | 354 | 415 | 435 | 387 | –
4 | CGCCGCAAGGCGAGCGCUCCCACUCCGGAAGGAGCGCCCGCAAGGGCAGGUAGGUCGCCGGAGUGAUGUUCCGGUGGAGGGCUCG [#2 Exclusion - Arginine A Attempt #15 (Inspired by Omei)] | 395 | 207 | 376 | 222 | 439 | –
5 | AAUUCUCUUUUUGAUACCAGCGAAUCUGAGUGAUGUUCUAAGCCAUACAAUUGAGUAAAUCGCCCUUGGCAGCAAUUCGUGGGUG [theeternabot_exclusion_KL_Theo_B_20] | 898 | 681 | 724 | 921 | 567 | –
6 | CACCAUGAAUUCUCUAGGAGUGAUGUUUUUCGAGGACCGGUACGGCCGCCACUCGGACGAGGACCGUGGGAGCGGCGAAGCGACU [wwegmullin] | 234 | 148 | 109 | 1070 | 101 | –
7 | CCAACGUGAAAAGGAUAUCGCGAUGUGCACGACUAGUGAUGUUAGGAGAGGCUCGUUGAAUUGUACCGAGAAGGUUUUGAGUGGG [theeternabot_sameState_KL_FMN_B_16] | 227 | 160 | 240 | 231 | 196 | –
8 | GGUAGCAUGGCGGCCGCCACUACCUAGUGAUGUUAGGCUGUGGACAUAGGAGCAAGACAAAUAUGUAGGACCGGGCCAUGCUACC | 126 | 92.8 | 111 | 124 | 131 | –
9 | UGUACUCUGAAAGGAUAUGUGAGCCCUUUUUGUUAGUGAUGUUGACACGGAAACACCAUCAGACUUACAGAAGGUUCGUUGGGUA [theeternabot_sameState_KL_FMN_B_17] | 375 | 183 | 241 | 286 | 252 | –
10 | UGAUACCAGACUGAUACCAGCUAGUGAUGUUAGCUGAAACAGGAACAGGCAAAGCCUGCUAGCCCUUGGCAGCAGUCUGGUAUCU [TheoBX 11 #SwitchBubble #StaticStem] | 91.5 | 90.6 | 96.9 | 152 | 85.3 | –
11 | UCACGUGCCAGUGAUGUUGGCGUACGUGAUACCAGACGAAUAAAAGUCCCUUGGCAGCACAAAUAUGCCAAGUUAGAUGUAUGAU [Exclusion Theophylline A GF 2] | 125 | 122 | 121 | 116 | 116 | –
12 | AACUUCUGAGGAUAUACAUAGAUUUACAUGAGGAUCACCCAUGUUCCUCUAUGUAUAAAUGUAGAAGGCAGAAGAU [Mat - Exclusion 5 - JL Mod - D62] (Eterna round: R97, puzzle: Exclusion 5) | – | – | – | – | – | apparent KD of MS2 coat protein (MS2 coat protein; input ligand: FMN 200 uM): 129 nM; apparent KD of MS2 coat protein (MS2 coat protein; input ligand: none): 18.4 nM
13 | GUACGAGCCAAACACGUGGACAUGAGGAUCACCCAUGUGUCACCGGAUCCAUAGAGCUCGUCUUACCGACAAAAGCU [Eternabot (Original) Solution 17] (Eterna round: R97, puzzle: Sensor, turn-off variant 1) | – | – | – | – | – | apparent KD of MS2 coat protein (MS2 coat protein; input ligand: FMN 200 uM): 28.9 nM; apparent KD of MS2 coat protein (MS2 coat protein; input ligand: none): 31.6 nM
14 | GUCAGCUCGUGAGGAUAUACAUGAUAGAUCGAUUAAUUAAUUAAUUUAACAUGAGGAUCACCCAUGUAGAAGGCACGAGCUGAC [ENG2/1-A1] (Eterna round: R96, puzzle: Exclusion NG 2) | – | – | – | – | – | apparent KD of MS2 coat protein (MS2 coat protein; [4]): 30.9 nM
15 | CGAAGUAGAAACCGAUCCUACAUGAGGAUCACCCAUGUAGCAAGACGUGCACGCGAAGCUCGUCAGACUACCAGAAU [salish99_TOv1_r3_015] (puzzle: Sensor v3, turn-off variant 1) | – | – | – | – | – | apparent KD of MS2 coat protein (MS2 coat protein; [5]): 212 nM; apparent KD of MS2 coat protein (MS2 coat protein; [6]): 257 nM; apparent KD of MS2 coat protein (MS2 coat protein; [7]): 430 nM
16 | CAUUCGCAAGGAUAUUAUUGCAGUGACAUGAGGAUCACCCAUGUGUUCGUCAUGCAUCGAUGAGAAGGUGCAAGAC [Orater] (puzzle: Exclusion 5) | – | – | – | – | – | apparent KD of MS2 coat protein (MS2 coat protein; [5]): 29.9 nM; apparent KD of MS2 coat protein (MS2 coat protein; [6]): 36.4 nM; apparent KD of MS2 coat protein (MS2 coat protein; [7]): 41.2 nM
17 | UCACGGGAUUGAGGAUAUAUAUGAAUUUUUUUUAUAGAAGGCAAAAUGUUAGAUUAUUCACUAUACAUGAGGAUCACCCAUGUU [JR_ExcBG1_Sub075] (Eterna round: R96, puzzle: Exclusion NG 1) | – | – | – | – | – | apparent KD of MS2 coat protein (MS2 coat protein; [4]): 20.3 nM
18 | UGUGUGAGACAGGAUAUGCCGGAUGAAUUGCAGGUAGAAGGGUCUACAUGAGGAUCACCCAUGUGGCCGGUUGG [Ex6 #76] (Eterna round: R97, puzzle: Exclusion 6) | – | – | – | – | – | apparent KD of MS2 coat protein (MS2 coat protein; input ligand: FMN 200 uM): 19.8 nM; apparent KD of MS2 coat protein (MS2 coat protein; input ligand: none): 13.6 nM
19 | GCACGGAGUGUAGGAUAUCUGUGCGAUUAGCUCAGAGAAGGACACAUGAGGAUCACCCAUGUGUUCCACGGAAACGUUCCGUGC [Eli exng1 - 049] (Eterna round: R96, puzzle: Exclusion NG 1) | – | – | – | – | – | apparent KD of MS2 coat protein (MS2 coat protein; input ligand: FMN 200 uM): 8.96 nM; apparent KD of MS2 coat protein (MS2 coat protein; [4]): 7.93 nM; apparent KD of MS2 coat protein (MS2 coat protein; input ligand: none): 11.9 nM
20 | AUAAGAAAGGCAGGAUAUUGUGCACCCUAGUGACAAGAAGGGCCAGGGUGUGCGCUCCACAUGAGGAUCACCCAUGUUAGAAAG [Berimate] (Eterna round: R96, puzzle: Exclusion NG 1) | – | – | – | – | – | apparent KD of MS2 coat protein (MS2 coat protein; input ligand: FMN 200 uM): 26.4 nM; apparent KD of MS2 coat protein (MS2 coat protein; [4]): 27 nM; apparent KD of MS2 coat protein (MS2 coat protein; input ligand: none): 29.3 nM
21 | GCUCGUCUUGUAAUGUUUAACAUGAGGAUCACCCAUGUCACCAACGUCGGAGAUGCAGGUUCAUGUUUUAAUGUAUA [Eternabot (L2) Solution 23] (Eterna round: R97, puzzle: Sensor, turn-off variant 1) | – | – | – | – | – | apparent KD of MS2 coat protein (MS2 coat protein; input ligand: FMN 200 uM): 83.5 nM; apparent KD of MS2 coat protein (MS2 coat protein; input ligand: none): 82.6 nM
